Test [1] addresses CD3 peptide. Description: SPR (Biacore); 25 °C. (In general: Surface plasmon resonance follows binding to a sensor surface in real time, without labels.)
In test [2] the target is CD3 peptide. Kind of test: SPR (Biacore); 25 °C. This is another data set of the same source.

Like-named read-outs stand apart in the source and are kept apart here.

The Kd is the free concentration of one partner at which half of the binding sites on the other are occupied at equilibrium, for simple one-to-one binding. A lower Kd goes with tighter binding.

B1: CD3_12 (NOV123) (antibody, V domains shown)
VH: QVQLVQSGAEVKKPGASVKVSCKASGYTFTSYYIYWVRQAPGQRLEWMGYIYPGHDAIYYSENFKGRVTITADTSASTAYMELSSLRSEDTAVYYCVRPNTMMAPLAYWGQGTLVTVSS
VL: DVVMTQSPLSLPVTLGQPASISCRSSQSLIYSIGNTYLHWYQQRPGQSPRLLIYRVSNRFSGVPDRFSGSGSGTDFTLKISRVEAEDVGVYYCFQSTHLPYTFGQGTKLEIKR
Consider B1, for which, in the test with CD3 peptide [1], binding was characterised by a dissociation constant (Kd) of 262 nM.

B2: CD3_13 (NOV292) (antibody, V domains shown)
VH: QVQLVESGGGVVQPGRSLRLSCAASGFTFSKNGMHWVRQAPGKGLEWVAMIYYDSSKMYYADTVKGRFTISRDNSKNTLYLQMNSLRAEDTAVYYCASFWWDLDFDHWGQGTMVTVSS
VL: DIVMTQTPLSSPVTLGQPASISCRSSQSLVRSDGTTYFNWYQQRPGQPPRLLIYRVSNRFSGVPDRFSGSGAGTDFTLKISRVEAEDVGVYYCLQSSHFPWTFGGGTKVEIKR
In turn, B2 registered a Kd in the test with CD3 peptide [2] of 4.59 nM.

The values are drawn from patent US20230037682A1 (published 2023).
